Among the data in a protein production outcome set (Wang et al. 2014) are protein production values, retold here.
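Also: failed if final PepcDB status was selected cloned or expressed and not failed if soluble or beyond.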

This data set in a line: label from the status in PepcDB records.
Consider “GSGCPLLENVISKTINPQVSKTEYKELLQEFIDDNATTNAIDELKECFLNQTDETLSNVEVFMQLIYDSSLCDLF”, for which the protein production entry is “failed”.
As to “MASLIMTTPFPGSVTACKKTNNLSVQRAFKVTCMQTEKPLEELYNVKVERKVSQKRLEELGVSRWSVWKTGKCKLPWDWQVDQLVYIEQGEVRVVPEGSKRYMQFLAGDLVRYPKWLEADLFFNAPYIERYCFKAYGDD”, the protein production result is given as “failed”.
Take “MDEKRLKILEAAMEEFTEKGYQAASTNKICAKAGVSKGLIFHYFGSKEKLYIAAVSYAVDFATNEVSLEEKRWSDFVEMAIWSTKMKLDFNRKYPAIFGLIMQAYGNPPPELKGKLDGFFDKAIERSEAQMNQVLNEMQLKKDVNMDAARKVMEALFQHITEKSTVFLQRHPNATMEDFIPLANDFTEMMRIVEFGICEEKKDSGE”: the protein production result is listed as “failed”.
The result for “MNFIIEPGSLADIDELERLYDELNDHLSATINYPGWIKGIYPVRENAAAGVDDNSLFVARCDGRIAGSVILDHQPEKAYENIVWKIDADYSYIFVVRTFVVHPSFLQMGVGHALMDFSLELALKSEMKSIRLDVYEKNLPAISLYEKCGFEYIDTVDLGLGHYGLDWFKLYEKVILEHHHHHH” reads “not failed”.
Consider “KVDKKTYKNLIVELQQRMREIQFALYERKIPLVLVFEGMDAAGKGGNIKRIREKLDPTGYEVNGISAPTDVELKHHYLWRFAKKMPKSGHIEIFDRSWYGRVLVERVEGFASQNEWQRASDEINQFEKMWTDEGTIILKFFLCLDKDEQLKRFKDRENNPDKQWKITEEDWRNREKWDEYLEASHDMIESTNTSYAPWYIVPADHKKTSRIEVLKTIIRKCEEVLWGVKTY”, for which the protein production result is “failed”.
For “MNMDFNLFMNDIVRQARQEITAAGYTELKTAEEVDEALTKKGTTLVMVNSVCGCAGGIARPAAYHSVHYDKRPDQLVTVFAGQDKEATARARDYFEGYPPSSPSFAILKDGKIMKMVERHEIEGHEPMAVVAKLQEAFEEYCEEV”, the protein production result is listed as “not failed”.
The result for “MTPEAAYQNLLEFQRETAYLASLGALAAWDQRTMIPKKGHEHRARQMAALARLLHQRMTDPRIGEWLEKVEGSPLVQDPLSDAAVNVREWRQAYERARAIPERLAVELAQAESEAESFWEEARPRDDWRGFLPYLKRVYALTKEKAEVLFALPPAPGDPPYGELYDALLDGYEPGMRARELLPLFAELKEGLKGLLDRILGSGKRPDTSILHRPYPVEAQRRFALELLSACGYDLEAGRLDPTAHPFEIAIGPGDVRITTRYYEDFFNAGIFGTLHEMGHALYEQGLPKEHWGTPRGDAVSLGVHESQSRTWENLVGRSLGFWERFFPRAREVFASLGDVSLEDFHFAVNAVEPSLIRVEADEVTYNLHILVRLELELALFRGELSPEDLPEAWAEKYRDHLGVAPKDYKDGVMQDVHWAGGLFGYFPTYTLGNLYAAQFFQKAEAELGPLEPRFARGEFQPFLDWTRARIHAEGSRFRPRVLVERVTGEAPSARPFLAYLEKKYAALYG” reads “not failed”; that for “PQLVRTHEDVPGPVGHLSFSEILDTSLKVSWQEPGEKNGILTGYRISWEEYNRTNTRVTHYLPNVTLEYRVTGLTALTTYTIEVAAMTSKGQGQVSASTISSGVPP”, “not failed”.
“MSTETAEKPGETTPESHVFEADVARLLHMMVHSVYSDKDVFLRELVSNAADACEKLRYEAITTPGLLTSDPDPRIQLRLDADNRQLILEDNGIGMSRAELIEALGTIARSGTRAFMERIEASKADAAKTGEDAQLIGQFGVGFYSCFMVADKVDVVTRRAGETQAWIWSSDGKGSYSISEIDAESAPARGTRITLHLMEDAKDYATRARVERIVKQQSGHVPVAITLVEKPGDEPTRITEGTALWTRPKSEISSEDYADFYRGIAGQYDEPALTVHFRAEGRHEYTALAFVPGTPPFDLFDPDRKGRIKLYVKRVFITDDAELLPRYLRFVRGLVDTADLPLNVSREMIQESPILSAIRKGVTNRILTSVEKLAQNEPETYKTLWENFGAVLKEGLYEDFERRSQLLGLTRFRTTTSGDDQRSLADYLKDLKPEQDSIYYLAGSNIEQLRASPQLEGFRARGIEVLLLSDQIDSFWVMNAPEFEGKTFKSVSQGAADLAKFAKADAGADSDQDSNDQAKADIAGFLALAKEQLKDQVADVRASDRLTESPVCLVAPESGYDRQLEKILAGAGQLASTSKPVLELNADHVLVKAMAGAQHTPALQNDAIHLLYDQARILDGEKPADARAFAERMGRLLEKALRA”: the protein production result is “failed”.
With “MPVCARAAAATGAAGHRSHLPEVTFCLRTIAERLHGGQHRRMNSSFCHLLHPLRLAAAFTIAAVALSFMPDASAHGAWRWGALAGFTALFVLHTVLPQTHALRTVATLLQAVLALLLVWIEPRAGTAPVLLVMLVAQAGMTWPPLRVLLLALALNAGMYAVLVHAGFDRALLIVSIYAGFQAFAALTAHYARSAERARDALAYVNADLLATRALLADSARDAERLRLARELHDVAGHKLTAMRINLRLLSADPALAQRDEVAVVEQLSAELLSDIRNVVQSLRDDQGLDLQTALRALAAPFPRPTLRLQIDADVRVTDARVAELLLRLVQEALTNAVRHADADEVAVHLHCEGAQLHVDICDDGRRAERIREGNGITGMRERLAALHGQLDLGRTPTGGMHLIARLPV”, the protein production entry is on record as “failed”.
With “MECPFVSVVVGIRNEERYIEECIESLLRLDYPQDSYEIIIVDGMSTDRTRELVQKYPVRLLLNERKNVAAARNLGVQNSMGDFVAFTDGDCKADPLWLKTLVTEMKNAPEDVVCVGGPNLIFDTDPVFGRVVGHAQETFLGSGGSAQSKNSLKKHYVSSLPNCNAMYKKNTIIEAGYFDERFVVGQDGDLNYRINKKGYKFLYIPEAIVLHHRRGTLKSFSVRMFKYGMWMGELFKKHGELVRWYAILPSVAILFSVFSLIISPVYTTPIIVLLLMGFLYLILVFIASIQVIFKMKSKYGLYALVVIPVQHITYGMGFLYSFANSLYKSKGVSSSIVQN”, the protein production entry is recorded as “failed”.
Take “MTELAQLQASAEQAAALLKAMSHPKRLLILCMLSGSPGTSAGELTRITGLSASATSQHLARMRDEGLIDSQRDAQRILYSIKNEAVNAIIATLKNVYCP”: the protein production entry is reported as “not failed”.
For the sequence “MELQDTIFKRQSVRKFKNQDVSDEDILKMIKAAGAAPSGKNIQNWHFVVIKRRDLMEKIADVITKKQQEILVEMDKVSVDKANRFRKFVKNFTLFYLKAPVLVLVFTKVYNPSGYYELELIDAPKETIDKLFIRNPGMQSLGAAIENFTLSAIELGYGSCWLTSQNYAADEIEAVLEAETGFEKGEYFLGAMLALGVPEDNLKSPSKKPVEEICTFIK”, the protein production result is “not failed”.
As to “MSLSDRVKKIESFTLTLPRETPYLGKPRPGEEPNGRGYLVRKANRTVYPTFDRSVLVRIETENGAVGWGETYGLVAPRATMEIIDDLLADFTIGRDPFDAAAIHDDLYDLMRVRGYTGGFYVDALAAIDIALWDLAGKLAGLPVCKLLGGQRRDRIAAYISGLPEDTRAKRAELAAAWQAKGFSSFKFASPVADDGVAKEMEILRERLGPAVRIACDMHWAHTASEAVALIKAMEPHGLWFAEAPVRTEDIDGLARVAASVSTAIAVGEEWRTVHDMVPRVARRALAIVQPEMGHKGITQFMRIGAYAHVHHIKVIPHATIGAGIFLAASLQASAALANVDCHEFQHSIFEPNRRLLVGDMDCLNGEYVVPTGPGLGVEPSKEAQGLLKKHEGHHHHHH”, the protein production result was “not failed”.
As for “MINFEATELRLGLPGGNHGGEMAGKNNGKRGFSETVDLKLNLSSTAMDSVSKVDLENMKEKVVKPPAKAQVVGWPPVRSFRKNVMSGQKPTTGDATEGNDKTSGSSGATSSASACATVAYVKVSMDGAPYLRKIDLKLYKTYQDLSNALSKMFSSFTIGNYGPQGMKDFMNESKLIDLLNGSDYVPTYEDKDGDWMLVGDVPWEMFVDSCKRIRIMKGSEAIGLAPRALEKCKNRS”, the entry is “failed”.
For “MASSAVSLQSISMTTLNNLSCNQQFHRSSLLGSSKSFQNLGISSNGSDFSYPSSFTAKKNLTASRALSQNGNIENPRPSKVQELSVYEINELDRHSPKILKNAFSLMFGLGDLVPFTNKLYTGDLKKRVGITAGLCVVIEHVPEKKGERFEATYSFYFGDYGHLSVQGPYLTYEDSFLAITGGAGIFEGAYGQVKLQQLVYPTKLFYTFYLKGLANDLPLELTGTPVPPSKDIEPAPEAKALEPSGVISNYTN”, the protein production result was “not failed”.
Regarding “MRLVADSACDIKELRGMVFKAVPLTISTDNEEFCDDGQLDIHRMLDILEKHKGRSYTACPGIDAWLEAFGDDDEIFVVTITAGMSGTYNSAMAARAVYLEEHPQAKVRVIDSKSTGPQMRIILEQLQQMIEEGKKFEEIDGAIDAYMQKTRLFCSLKSLHNLAQNGRVSKVVASAAEVLGISVIGTASSHGTLEAIGKCRGDKKLLVKLQALLDDAGYEGGKLRICHVENEALADKIADMIKQAYGTTDVCVYKAGGLCSYYAERGGIILSCETK”, the protein production result was “not failed”.
The result for “MSLILYDYFRSTACYRVRIALNLKKIAYEKIEVHLVNNGGEQHSLQYHQINPQELVPSLDINGQILSQSMAIIDYLEEIHPEMPLLPKDPFMKATLKSMALIVACDMHPLNNLRVLNRLKEQFNANEEQVLEWYHHWLKTGFDAFEEKLGALERDKPVCFGSEVGLADVCLIPQVYNAHRFHFDMASYPIINEINEYCLTLPAFHDAAPEAISSEGHHHHHH” reads “not failed”; that for “MNTHLKQLIEISHLDKEIDSLEPLIREKRKDLDKALNDKEAKNKAILNLEEEKLALKLQVSKNEQTLQDTNTKIASIQKKMSEIKSERELRSLNIEEDIAKERSNQANREIENLQNEIKHKSEKQEDLKKEMLELEKLVQQLESLVENEVKNIKETQQIIFKKKEELVEKTEPKIYSFYERIRRWAKNTSIVTIKKQACGGCFIRLNDKIYTEVLTSGDMITCPYCGRILYAEG”, “failed”.
Take “MTRIAIALAQDFADWEPALLAAAARSYLGVEIVHATPDGMPVTSMGGLKVTPDTSYDALDPVDIDALVIPGGLSWEKGTAADLGGLVKRFRDRDRLVAGICAAASALGGTGVLNDVAHTGNALASHKAYPAYRGEAHYRDQPRAVSDGGVVTAAGSAPVSFAVEILKSLGLFGPEAEAELQIFAAEHR”: the protein production entry was “not failed”.
As to “MLYPSKPNNEALRIQTLRELNVLDTSPEERFDRLTRLAKRLFNVPIALVSLVDADRQWFKSCVGLDVSETSRDISFCGHAILGDQILTVPDAGLDERFHDNPLVVGAPGIRFYAGCPLTVTNGSKLGTLCLIDIKPRDLDDEDRALLRDLARMAEQELAAVQMASMDELTLLSNRRGFEALARHALGVCKRLEKPATLLFFDLNDFKQINDTYGHAEGDGALKTFADVLRIAFRESDVIGRLGGDEFVALLTAADHVETSAIMARLREILDERNATLKRGYDIRFSVGQIEYDAERHPDIEALLADADKAMYLHKQASKRARLEHHHHHH”, the protein production result is listed as “failed”.
“MVRGIRGAITVEEDTPEAIHQATRELLLKMLEANGIQSYEELAAVIFTVTEDLTFAFPAEAARQIGMHRVPLLSAREVPVPGSLPRVIRVLALWNTDTPQDRVRHVYLREAVRLRPDLESAQ”: the protein production entry was “not failed”.
